B1: Speckle-type POZ protein (Homo sapiens), O43791 (parent)
chain: MSRVPSPPPPAEMSSGPVAESWCYTQIKVVKFSYMWTINNFSFCREEMGEVIKSSTFSSGANDKLKWCLRVNPKGLDEESKDYLSLYLLLVSCPKSEVRAKFKFSILNAKGEETKAMESQRAYRFVQGKDWGFKKFIRRDFLLDEANGLLPDDKLTLFCEVSVVQDSVNISGQNTMNMVKVPECRLADELGGLWENSRFTDCCLCVAGQEFQAHKAILAARSPVFSAMFEHEMEESKKNRVEINDVEPEVFKEMMCFIYTGKAPNLDKMADDLLAAADKYALERLKVMCEDALCSNLSVENAAEILILADLHSADQLKTQAVDFINYHASDVLETSGWKSMVVSHPHLVAEAYRSLASAQCPFLGPPRKRLKQS
partner: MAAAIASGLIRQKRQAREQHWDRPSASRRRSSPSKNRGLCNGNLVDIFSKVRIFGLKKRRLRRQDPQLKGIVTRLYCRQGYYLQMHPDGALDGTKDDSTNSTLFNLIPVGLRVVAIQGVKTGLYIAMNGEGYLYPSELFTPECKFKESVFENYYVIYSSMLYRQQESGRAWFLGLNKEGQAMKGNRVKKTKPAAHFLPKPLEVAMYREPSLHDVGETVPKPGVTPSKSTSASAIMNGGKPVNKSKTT
B2: Speckle-type POZ protein (Homo sapiens), O43791 (parent)
chain: B1 chain
partner: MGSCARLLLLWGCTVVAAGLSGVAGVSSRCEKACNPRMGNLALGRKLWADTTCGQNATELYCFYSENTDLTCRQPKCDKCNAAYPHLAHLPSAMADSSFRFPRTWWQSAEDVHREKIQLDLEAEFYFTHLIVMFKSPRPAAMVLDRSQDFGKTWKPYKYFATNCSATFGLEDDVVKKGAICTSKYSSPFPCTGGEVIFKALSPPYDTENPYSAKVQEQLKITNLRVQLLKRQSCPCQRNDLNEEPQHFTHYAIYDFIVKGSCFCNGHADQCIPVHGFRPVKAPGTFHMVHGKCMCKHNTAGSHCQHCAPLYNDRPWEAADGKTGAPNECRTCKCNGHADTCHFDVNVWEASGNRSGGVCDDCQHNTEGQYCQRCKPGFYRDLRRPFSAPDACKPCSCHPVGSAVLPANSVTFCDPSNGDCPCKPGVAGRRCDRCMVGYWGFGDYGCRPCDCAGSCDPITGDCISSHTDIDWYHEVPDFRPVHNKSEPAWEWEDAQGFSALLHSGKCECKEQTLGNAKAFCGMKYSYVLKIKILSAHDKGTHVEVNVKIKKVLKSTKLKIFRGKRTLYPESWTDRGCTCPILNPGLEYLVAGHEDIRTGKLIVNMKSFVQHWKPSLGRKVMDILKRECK
B3: Speckle-type POZ protein (Homo sapiens), O43791 (parent)
chain: B1 chain
partner: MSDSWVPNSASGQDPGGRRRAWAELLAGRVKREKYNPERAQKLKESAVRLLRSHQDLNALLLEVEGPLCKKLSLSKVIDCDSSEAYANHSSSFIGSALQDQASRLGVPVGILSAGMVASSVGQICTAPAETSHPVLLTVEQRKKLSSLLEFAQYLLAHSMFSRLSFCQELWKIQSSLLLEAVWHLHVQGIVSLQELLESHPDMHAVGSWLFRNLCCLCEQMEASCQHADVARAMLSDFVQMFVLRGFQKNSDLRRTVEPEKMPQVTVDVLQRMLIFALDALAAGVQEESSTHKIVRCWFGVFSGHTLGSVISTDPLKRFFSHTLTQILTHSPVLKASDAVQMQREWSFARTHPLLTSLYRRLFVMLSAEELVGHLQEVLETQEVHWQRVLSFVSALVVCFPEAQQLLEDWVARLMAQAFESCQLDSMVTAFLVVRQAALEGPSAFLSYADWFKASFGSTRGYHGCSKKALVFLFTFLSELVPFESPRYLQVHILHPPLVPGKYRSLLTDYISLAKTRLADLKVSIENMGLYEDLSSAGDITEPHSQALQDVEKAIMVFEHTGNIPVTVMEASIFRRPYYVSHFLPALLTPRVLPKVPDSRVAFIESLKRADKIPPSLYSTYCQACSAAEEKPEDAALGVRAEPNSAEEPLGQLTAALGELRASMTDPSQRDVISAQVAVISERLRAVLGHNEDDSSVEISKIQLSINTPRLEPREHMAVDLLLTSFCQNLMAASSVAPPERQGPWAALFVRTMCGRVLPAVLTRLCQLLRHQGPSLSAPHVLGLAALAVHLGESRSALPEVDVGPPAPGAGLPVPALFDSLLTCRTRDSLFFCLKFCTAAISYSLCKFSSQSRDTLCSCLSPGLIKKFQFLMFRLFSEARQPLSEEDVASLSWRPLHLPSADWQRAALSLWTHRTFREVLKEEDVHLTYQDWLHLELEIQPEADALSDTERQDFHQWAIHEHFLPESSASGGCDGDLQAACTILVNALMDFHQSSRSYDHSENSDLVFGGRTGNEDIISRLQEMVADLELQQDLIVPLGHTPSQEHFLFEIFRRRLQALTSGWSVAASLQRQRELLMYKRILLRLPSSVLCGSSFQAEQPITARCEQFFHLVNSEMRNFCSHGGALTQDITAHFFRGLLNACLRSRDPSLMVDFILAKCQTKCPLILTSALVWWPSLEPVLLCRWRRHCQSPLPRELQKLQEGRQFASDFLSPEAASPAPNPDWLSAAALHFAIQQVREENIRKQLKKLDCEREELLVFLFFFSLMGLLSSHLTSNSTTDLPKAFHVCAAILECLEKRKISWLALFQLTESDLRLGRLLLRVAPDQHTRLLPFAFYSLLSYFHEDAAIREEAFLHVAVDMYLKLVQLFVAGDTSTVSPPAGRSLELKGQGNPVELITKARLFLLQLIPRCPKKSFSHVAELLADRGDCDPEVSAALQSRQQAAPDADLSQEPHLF
B4: Speckle-type POZ protein (Homo sapiens), O43791 (parent)
chain: B1 chain
partner: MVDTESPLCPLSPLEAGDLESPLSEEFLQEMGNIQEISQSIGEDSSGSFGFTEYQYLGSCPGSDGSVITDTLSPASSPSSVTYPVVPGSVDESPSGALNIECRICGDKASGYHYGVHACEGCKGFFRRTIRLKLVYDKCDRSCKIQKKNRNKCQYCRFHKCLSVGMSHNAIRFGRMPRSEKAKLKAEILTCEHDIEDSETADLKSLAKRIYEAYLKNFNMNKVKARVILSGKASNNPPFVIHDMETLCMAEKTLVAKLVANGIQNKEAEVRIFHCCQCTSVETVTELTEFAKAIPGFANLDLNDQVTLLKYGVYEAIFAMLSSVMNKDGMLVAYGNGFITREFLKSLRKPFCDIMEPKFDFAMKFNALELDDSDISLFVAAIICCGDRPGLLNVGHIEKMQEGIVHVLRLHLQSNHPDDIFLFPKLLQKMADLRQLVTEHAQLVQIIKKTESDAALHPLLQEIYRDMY
B5: Speckle-type POZ protein (Homo sapiens), O43791 (parent)
chain: B1 chain
partner: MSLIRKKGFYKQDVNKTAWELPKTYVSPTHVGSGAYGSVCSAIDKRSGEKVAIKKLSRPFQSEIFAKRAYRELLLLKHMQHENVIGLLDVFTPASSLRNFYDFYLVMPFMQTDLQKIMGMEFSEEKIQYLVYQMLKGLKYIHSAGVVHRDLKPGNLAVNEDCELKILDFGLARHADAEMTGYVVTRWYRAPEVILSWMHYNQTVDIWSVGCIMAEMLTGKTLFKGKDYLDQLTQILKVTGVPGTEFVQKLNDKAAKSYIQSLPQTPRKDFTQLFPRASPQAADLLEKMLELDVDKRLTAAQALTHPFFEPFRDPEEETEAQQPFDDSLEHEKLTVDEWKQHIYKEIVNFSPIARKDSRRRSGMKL
B6: Speckle-type POZ protein (Homo sapiens), O43791 (parent)
chain: B1 chain
partner: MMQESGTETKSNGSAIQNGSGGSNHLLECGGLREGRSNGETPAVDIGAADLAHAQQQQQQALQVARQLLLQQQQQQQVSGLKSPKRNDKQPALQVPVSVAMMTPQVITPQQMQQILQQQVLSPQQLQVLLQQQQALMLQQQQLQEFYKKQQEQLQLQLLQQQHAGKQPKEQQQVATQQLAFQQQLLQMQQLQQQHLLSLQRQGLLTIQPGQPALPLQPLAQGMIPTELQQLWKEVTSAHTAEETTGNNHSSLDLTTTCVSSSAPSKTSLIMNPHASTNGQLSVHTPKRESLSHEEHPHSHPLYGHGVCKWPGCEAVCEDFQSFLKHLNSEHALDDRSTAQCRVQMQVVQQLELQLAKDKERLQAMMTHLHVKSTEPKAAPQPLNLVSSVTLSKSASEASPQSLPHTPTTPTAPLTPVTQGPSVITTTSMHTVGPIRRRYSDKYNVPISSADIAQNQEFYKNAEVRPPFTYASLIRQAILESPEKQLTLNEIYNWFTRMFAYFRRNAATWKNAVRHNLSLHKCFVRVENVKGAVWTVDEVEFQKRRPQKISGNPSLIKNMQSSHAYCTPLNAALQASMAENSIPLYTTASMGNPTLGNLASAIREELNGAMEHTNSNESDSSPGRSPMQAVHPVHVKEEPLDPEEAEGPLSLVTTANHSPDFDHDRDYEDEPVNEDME

Variants of: B1
Details: with fgf14_human FGF14, Q92915

Row | Variant | effect of a mutation on the interaction
1 | F133L | with no effect

Variants of: B1
Details: with fgf14_human FGF14, Q92915
Remark: another data set of the same source

Row | Variant | effect of a mutation on the interaction
2 | F133V | with no effect

Variants of: B1
Details: with fgf14_human FGF14, Q92915
Remark: another data set of the same source

Row | Variant | effect of a mutation on the interaction
3 | Y87C | with no effect

Variants of: B1
Details: with fgf14_human FGF14, Q92915
Remark: another data set of the same source

Row | Variant | effect of a mutation on the interaction
4 | F102C | with no effect

Variants of: B2
Details: with net4_human NTN4, Q9HB63

Row | Variant | effect of a mutation on the interaction
5 | F102C | with no effect

Variants of: B2
Details: with net4_human NTN4, Q9HB63
Remark: another data set of the same source

Row | Variant | effect of a mutation on the interaction
6 | Y87C | with no effect

Variants of: B2
Details: with net4_human NTN4, Q9HB63
Remark: another data set of the same source

Row | Variant | effect of a mutation on the interaction
7 | F133L | with no effect

Variants of: B2
Details: with net4_human NTN4, Q9HB63
Remark: another data set of the same source

Row | Variant | effect of a mutation on the interaction
8 | F133V | with no effect

Variants of: B3
Details: with fanca_human FANCA

Row | Variant | effect of a mutation on the interaction
9 | Y87C | with no effect

Variants of: B3
Details: with fanca_human FANCA
Remark: another data set of the same source

Row | Variant | effect of a mutation on the interaction
10 | F102C | with no effect

Variants of: B3
Details: with fanca_human FANCA
Remark: another data set of the same source

Row | Variant | effect of a mutation on the interaction
11 | F133L | with no effect

Variants of: B4
Details: with ppara_human PPARA

Row | Variant | effect of a mutation on the interaction
12 | F102C | with no effect

Variants of: B4
Details: with ppara_human PPARA
Remark: another data set of the same source

Row | Variant | effect of a mutation on the interaction
13 | F133L | with no effect

Variants of: B4
Details: with ppara_human PPARA
Remark: another data set of the same source

Row | Variant | effect of a mutation on the interaction
14 | F133V | with no effect

Variants of: B4
Details: with ppara_human PPARA
Remark: another data set of the same source

Row | Variant | effect of a mutation on the interaction
15 | Y87C | with no effect

Variants of: B5
Details: with mk13_human MAPK13, O15264

Row | Variant | effect of a mutation on the interaction
16 | Y87C | with no effect

Variants of: B5
Details: with mk13_human MAPK13, O15264
Remark: another data set of the same source

Row | Variant | effect of a mutation on the interaction
17 | F102C | with no effect

Variants of: B5
Details: with mk13_human MAPK13, O15264
Remark: another data set of the same source

Row | Variant | effect of a mutation on the interaction
18 | F133V | with no effect

Variants of: B5
Details: with mk13_human MAPK13, O15264
Remark: another data set of the same source

Row | Variant | effect of a mutation on the interaction
19 | F133L | with no effect

Variants of: B6
Details: with foxp1_human FOXP1, Q9H334

Row | Variant | effect of a mutation on the interaction
20 | F133V | causing an interaction

Variants of: B6
Details: with foxp1_human FOXP1, Q9H334
Remark: another data set of the same source

Row | Variant | effect of a mutation on the interaction
21 | F133L | with no effect

Variants of: B6
Details: with foxp1_human FOXP1, Q9H334
Remark: another data set of the same source

Row | Variant | effect of a mutation on the interaction
22 | Y87C | with no effect

Variants of: B6
Details: with foxp1_human FOXP1, Q9H334
Remark: another data set of the same source

Row | Variant | effect of a mutation on the interaction
23 | F102C | with no effect

— IntAct's records for PubMed 35512704
